Reference: publication PMC9482650, “Quantitative fragmentomics allow affinity mapping of interactomes” (Nature Communications, 2022)

Assays:
Assay in all cases: holdup assay
Design in all cases: key: below the threshold = too weak to quantify, mostly under pKd 3.1 to 4
Details in all cases: plain residues with an end cap or a label only (N-terminal biotin on a linker: ado-ado)
[1] = molecular target: T1, APBA3_1, O96018
T1 sequence (O96018 389-490, limits assumed, looked up): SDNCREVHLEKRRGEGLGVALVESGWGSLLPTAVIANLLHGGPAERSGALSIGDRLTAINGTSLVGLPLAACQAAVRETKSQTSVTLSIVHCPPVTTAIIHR

[2] = molecular target: FRMPD4, Q14CM0
[3] = molecular target: MAGI2_6, Q86UL8
[4] = molecular target: T2, RADIL, Q96JH8
T2 sequence (Q96JH8 971-1071, limits assumed, looked up): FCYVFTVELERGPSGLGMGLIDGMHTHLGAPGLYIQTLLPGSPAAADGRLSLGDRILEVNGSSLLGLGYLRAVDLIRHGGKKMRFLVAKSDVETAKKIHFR

[5] = molecular target: T3, PDZRN3_1, Q9UPQ7
T3 sequence (Q9UPQ7 244-349, limits assumed, looked up): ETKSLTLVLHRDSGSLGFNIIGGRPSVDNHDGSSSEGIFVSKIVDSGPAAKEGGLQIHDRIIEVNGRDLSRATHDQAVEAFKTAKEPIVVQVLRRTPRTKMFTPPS

[6] = molecular target: DLG5_1, Q8TDM6
[7] = molecular target: MAGI1_2, Q96QZ7
[8] = molecular target: DLG4_3, P78352
[9] = molecular target: T4, SNTB1, Q13884
T4 sequence (Q13884 107-205, limits assumed, looked up): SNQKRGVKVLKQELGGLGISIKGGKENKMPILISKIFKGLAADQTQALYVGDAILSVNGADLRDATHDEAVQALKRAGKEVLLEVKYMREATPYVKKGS

[10] = molecular target: PDZRN4_1, Q6ZMN7
[11] = molecular target: LNX1_3, Q8TBB1
[12] = molecular target: GORASP1, Q9BQQ3
[13] = molecular target: PICK1, Q9NRD5
[14] = molecular target: GIPC2, Q8TF65
[15] = molecular target: GRIP2_7, Q9C0E4
[16] = molecular target: Inadl_6, Q8NI35
[17] = molecular target: T5, GRIP1_5, Q9Y3R0
T5 sequence (Q9Y3R0 568-668, limits assumed, looked up): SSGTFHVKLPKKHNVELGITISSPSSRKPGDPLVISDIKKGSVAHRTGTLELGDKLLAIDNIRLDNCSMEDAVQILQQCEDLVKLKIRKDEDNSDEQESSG

[18] = molecular target: IL16_4, Q14005
[19] = molecular target: SCRIB_3, Q14160
[20] = molecular target: MAGI2_5, Q86UL8
[21] = molecular target: T6, TX1BP3, O14907
T6 sequence (O14907 10-122, limits assumed, looked up): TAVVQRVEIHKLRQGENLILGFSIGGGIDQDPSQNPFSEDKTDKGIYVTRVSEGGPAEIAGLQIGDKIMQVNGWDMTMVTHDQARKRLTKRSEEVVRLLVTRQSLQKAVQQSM

[22] = molecular target: T7, DFNB31_1, Q9P202
T7 sequence (Q9P202 135-233, limits assumed, looked up): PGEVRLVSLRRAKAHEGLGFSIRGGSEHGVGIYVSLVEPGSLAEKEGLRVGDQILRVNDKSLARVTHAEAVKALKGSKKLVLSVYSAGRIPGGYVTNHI

[23] = molecular target: LNX1_2, Q8TBB1
[24] = molecular target: GRIP2_4, Q9C0E4
[25] = molecular target: MAGI1_1, Q96QZ7
[26] = molecular target: SNX27, Q96L92
[27] = molecular target: LNX1_1, Q8TBB1
[28] = molecular target: T8, GRIP1_3, Q9Y3R0
T8 sequence (Q9Y3R0 247-346, limits assumed, looked up): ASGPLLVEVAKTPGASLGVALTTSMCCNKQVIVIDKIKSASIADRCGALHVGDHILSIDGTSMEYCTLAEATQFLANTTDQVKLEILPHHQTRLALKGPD

[29] = molecular target: Inadl_1, Q8NI35
Chain of Inadl_1, Q8NI35 (Q8NI35 113-229): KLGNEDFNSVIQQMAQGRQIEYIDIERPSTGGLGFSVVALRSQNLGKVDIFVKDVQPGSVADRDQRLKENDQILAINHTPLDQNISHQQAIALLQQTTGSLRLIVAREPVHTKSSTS

Chain of IL16_4, Q14005 (Q14005 1229-1329): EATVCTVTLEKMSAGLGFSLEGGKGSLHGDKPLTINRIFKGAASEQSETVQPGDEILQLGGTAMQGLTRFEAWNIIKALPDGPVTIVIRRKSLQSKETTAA
Chain of Inadl_6, Q8NI35 (Q8NI35 1058-1167): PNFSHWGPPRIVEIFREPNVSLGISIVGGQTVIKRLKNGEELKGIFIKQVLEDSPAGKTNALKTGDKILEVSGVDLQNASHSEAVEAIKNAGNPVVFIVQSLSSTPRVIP
Chain of FRMPD4, Q14CM0 (Q14CM0 67-160): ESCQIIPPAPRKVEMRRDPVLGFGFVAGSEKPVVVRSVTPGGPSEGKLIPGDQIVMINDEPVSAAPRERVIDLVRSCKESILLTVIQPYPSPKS
Chain of MAGI1_1, Q96QZ7 (Q96QZ7 1-106): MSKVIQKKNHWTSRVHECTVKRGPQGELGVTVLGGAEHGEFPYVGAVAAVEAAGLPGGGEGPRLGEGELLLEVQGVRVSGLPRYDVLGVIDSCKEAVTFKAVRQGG
Chain of PICK1, Q9NRD5 (Q9NRD5 17-115): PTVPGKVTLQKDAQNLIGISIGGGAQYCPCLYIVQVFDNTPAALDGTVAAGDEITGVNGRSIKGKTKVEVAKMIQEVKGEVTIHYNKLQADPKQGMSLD
Chain of DLG4_3, P78352 (P78352 306-403): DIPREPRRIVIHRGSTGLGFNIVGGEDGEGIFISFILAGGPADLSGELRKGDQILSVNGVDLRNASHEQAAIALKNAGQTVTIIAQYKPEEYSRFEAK
Chain of SCRIB_3, Q14160 (Q14160 999-1103): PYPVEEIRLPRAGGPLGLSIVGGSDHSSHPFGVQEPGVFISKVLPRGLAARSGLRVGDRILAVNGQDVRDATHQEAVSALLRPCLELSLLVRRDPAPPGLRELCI
Chain of GRIP2_7, Q9C0E4 (Q9C0E4 934-1023): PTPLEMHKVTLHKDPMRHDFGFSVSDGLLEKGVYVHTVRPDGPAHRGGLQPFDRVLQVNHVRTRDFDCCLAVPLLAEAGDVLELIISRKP
Chain of GIPC2, Q8TF65 (Q8TF65 112-203): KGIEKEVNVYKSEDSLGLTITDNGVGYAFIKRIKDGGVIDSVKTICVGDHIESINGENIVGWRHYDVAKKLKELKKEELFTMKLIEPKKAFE
Chain of LNX1_2, Q8TBB1 (Q8TBB1 371-470): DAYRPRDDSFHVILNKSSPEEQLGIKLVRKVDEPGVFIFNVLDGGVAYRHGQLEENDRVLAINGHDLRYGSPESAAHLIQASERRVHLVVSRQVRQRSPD
Chain of GORASP1, Q9BQQ3 (Q9BQQ3 1-208): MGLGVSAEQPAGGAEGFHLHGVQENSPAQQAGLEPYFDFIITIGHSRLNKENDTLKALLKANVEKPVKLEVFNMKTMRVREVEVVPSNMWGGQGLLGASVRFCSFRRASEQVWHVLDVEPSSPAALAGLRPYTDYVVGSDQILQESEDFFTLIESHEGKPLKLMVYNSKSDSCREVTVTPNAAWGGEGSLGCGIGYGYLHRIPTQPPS
Chain of MAGI2_5, Q86UL8 (Q86UL8 915-1017): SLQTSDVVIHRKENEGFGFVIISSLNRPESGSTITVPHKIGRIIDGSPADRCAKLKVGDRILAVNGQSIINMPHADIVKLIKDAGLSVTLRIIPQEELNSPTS
Chain of DLG5_1, Q8TDM6 (Q8TDM6 617-713): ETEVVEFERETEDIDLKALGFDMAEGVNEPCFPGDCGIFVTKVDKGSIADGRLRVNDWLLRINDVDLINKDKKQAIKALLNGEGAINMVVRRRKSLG
Chain of GRIP2_4, Q9C0E4 (Q9C0E4 446-548): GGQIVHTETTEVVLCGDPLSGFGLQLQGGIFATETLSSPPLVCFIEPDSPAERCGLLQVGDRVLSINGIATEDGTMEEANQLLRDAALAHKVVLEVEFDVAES
Chain of MAGI2_6, Q86UL8 (Q86UL8 1141-1229): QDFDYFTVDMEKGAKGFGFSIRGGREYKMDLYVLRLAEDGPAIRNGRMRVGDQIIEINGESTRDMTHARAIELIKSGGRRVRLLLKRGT
Chain of MAGI1_2, Q96QZ7 (Q96QZ7 456-580): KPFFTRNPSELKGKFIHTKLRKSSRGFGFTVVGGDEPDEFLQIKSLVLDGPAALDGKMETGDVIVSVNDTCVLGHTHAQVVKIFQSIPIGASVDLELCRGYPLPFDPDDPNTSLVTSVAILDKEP
Chain of LNX1_3, Q8TBB1 (Q8TBB1 500-596): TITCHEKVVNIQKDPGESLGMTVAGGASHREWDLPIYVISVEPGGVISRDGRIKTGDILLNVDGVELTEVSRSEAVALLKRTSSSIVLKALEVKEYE
Chain of PDZRN4_1, Q6ZMN7 (Q6ZMN7 213-318): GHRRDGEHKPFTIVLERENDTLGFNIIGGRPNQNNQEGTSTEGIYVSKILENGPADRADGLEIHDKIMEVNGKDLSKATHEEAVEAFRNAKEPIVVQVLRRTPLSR
Chain of LNX1_1, Q8TBB1 (Q8TBB1 261-371): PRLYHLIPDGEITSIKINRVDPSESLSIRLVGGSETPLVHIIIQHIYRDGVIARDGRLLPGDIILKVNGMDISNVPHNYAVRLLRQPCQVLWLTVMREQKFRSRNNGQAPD

B1: KCNB1, Q14721 (peptide)
chain: AHGSTRDQSI
Question: Which results are given for B1?
Answer: pKd [1]: below the threshold; pKd [2]: below the threshold; pKd [3]: below the threshold; pKd [4]: below the threshold; pKd [5]: below the threshold; pKd [6]: 4.06; pKd [7]: below the threshold; pKd [8]: below the threshold; pKd [9]: below the threshold; pKd [10]: below the threshold; pKd [11]: below the threshold; pKd [12]: below the threshold; pKd [13]: 4.15; pKd [14]: below the threshold; pKd [15]: below the threshold; pKd [16]: below the threshold; pKd [17]: 3.54; pKd [18]: below the threshold; pKd [19]: below the threshold; pKd [20]: below the threshold; pKd [21]: 4.1; pKd [22]: below the threshold; pKd [23]: below the threshold; pKd [24]: 3.68; pKd [25]: below the threshold; pKd [26]: below the threshold; pKd [27]: below the threshold; pKd [28]: below the threshold; pKd [29]: below the threshold

B2: DFNB31, Q9P202 (peptide)
chain: FLVTEFNVML
Question: Which pKd [1] does the source give for B2 here?
Answer: The pKd was “below the threshold”.

Question: And the pKd [2]?
Answer: The pKd was 4.9.

Question: What about the pKd [3] of the same binder?
Answer: The pKd was 4.78.

Question: What about the pKd [4] of the same binder?
Answer: Its pKd is 4.78.

Question: What about the pKd [5] of the same binder?
Answer: The pKd was “below the threshold”.

Question: What about the pKd [6] of the same binder?
Answer: The pKd was “below the threshold”.

Question: What about the pKd [7] of the same binder?
Answer: Its pKd is “below the threshold”.

Question: What about the pKd [8] of the same binder?
Answer: Its pKd is “below the threshold”.

Question: And the pKd [9]?
Answer: The pKd was “below the threshold”.

Question: What about the pKd [10] of the same binder?
Answer: Its pKd is “below the threshold”.

Question: What about the pKd [11] of the same binder?
Answer: Its pKd is “below the threshold”.

Question: What about the pKd [12] of the same binder?
Answer: The pKd was 4.32.

Question: What about the pKd [13] of the same binder?
Answer: Its pKd is “below the threshold”.

Question: What about the pKd [14] of the same binder?
Answer: Its pKd is “below the threshold”.

Question: What about the pKd [15] of the same binder?
Answer: Its pKd is “below the threshold”.

Question: And the pKd [16]?
Answer: The pKd was “below the threshold”.

Question: And the pKd [17]?
Answer: Its pKd is “below the threshold”.

Question: What about the pKd [18] of the same binder?
Answer: Its pKd is “below the threshold”.

Question: And the pKd [19]?
Answer: Its pKd is 4.12.

Question: What about the pKd [20] of the same binder?
Answer: Its pKd is “below the threshold”.

Question: What about the pKd [21] of the same binder?
Answer: The pKd was 3.96.

Question: What about the pKd [22] of the same binder?
Answer: The pKd was “below the threshold”.

Question: What about the pKd [23] of the same binder?
Answer: The pKd was “below the threshold”.

Question: What about the pKd [24] of the same binder?
Answer: Its pKd is “below the threshold”.

Question: What about the pKd [25] of the same binder?
Answer: Its pKd is “below the threshold”.

Question: And the pKd [26]?
Answer: Its pKd is 4.4.

Question: What about the pKd [27] of the same binder?
Answer: The pKd was “below the threshold”.

Question: And the pKd [28]?
Answer: The pKd was “below the threshold”.

Question: What about the pKd [29] of the same binder?
Answer: Its pKd is “below the threshold”.

B3: KCNA6, P17658 (peptide)
chain: YAEKRMLTEV
Question: What does the source list for B3?
Answer: pKd [1]: below the threshold; pKd [2]: below the threshold; pKd [3]: below the threshold; pKd [4]: 3.97; pKd [5]: below the threshold; pKd [6]: below the threshold; pKd [7]: 4.54; pKd [8]: 3.74; pKd [9]: below the threshold; pKd [10]: below the threshold; pKd [11]: below the threshold; pKd [12]: below the threshold; pKd [13]: below the threshold; pKd [14]: below the threshold; pKd [15]: below the threshold; pKd [16]: below the threshold; pKd [17]: below the threshold; pKd [18]: below the threshold; pKd [19]: 3.52; pKd [20]: 4.28; pKd [21]: 4.29; pKd [22]: below the threshold; pKd [23]: 3.51; pKd [24]: below the threshold; pKd [25]: below the threshold; pKd [26]: below the threshold; pKd [27]: below the threshold; pKd [28]: below the threshold; pKd [29]: below the threshold

B4: CSPG4, Q6UVK1 (peptide)
chain: PALKNGQYWV
Question: B4 was tested. Which pKd [1] did it give?
Answer: The pKd was “below the threshold”.

Question: What about the pKd [2] of the same binder?
Answer: Its pKd is 3.68.

Question: What about the pKd [3] of the same binder?
Answer: Its pKd is 3.67.

Question: What about the pKd [4] of the same binder?
Answer: The pKd was 5.17.

Question: What about the pKd [5] of the same binder?
Answer: The pKd was “below the threshold”.

Question: What about the pKd [6] of the same binder?
Answer: Its pKd is “below the threshold”.

Question: And the pKd [7]?
Answer: The pKd was “below the threshold”.

Question: And the pKd [8]?
Answer: The pKd was “below the threshold”.

Question: And the pKd [9]?
Answer: The pKd was “below the threshold”.

Question: And the pKd [10]?
Answer: Its pKd is “below the threshold”.

Question: What about the pKd [11] of the same binder?
Answer: The pKd was “below the threshold”.

Question: And the pKd [12]?
Answer: Its pKd is 5.29.

Question: What about the pKd [13] of the same binder?
Answer: Its pKd is “below the threshold”.

Question: And the pKd [14]?
Answer: The pKd was “below the threshold”.

Question: What about the pKd [15] of the same binder?
Answer: The pKd was 5.83.

Question: And the pKd [16]?
Answer: Its pKd is “below the threshold”.

Question: What about the pKd [17] of the same binder?
Answer: The pKd was “below the threshold”.

Question: And the pKd [18]?
Answer: The pKd was “below the threshold”.

Question: What about the pKd [19] of the same binder?
Answer: Its pKd is 3.58.

Question: What about the pKd [20] of the same binder?
Answer: Its pKd is “below the threshold”.

Question: What about the pKd [21] of the same binder?
Answer: The pKd was 4.19.

Question: What about the pKd [22] of the same binder?
Answer: Its pKd is “below the threshold”.

Question: And the pKd [23]?
Answer: The pKd was 4.27.

Question: And the pKd [24]?
Answer: The pKd was “below the threshold”.

Question: What about the pKd [25] of the same binder?
Answer: Its pKd is “below the threshold”.

Question: And the pKd [26]?
Answer: The pKd was 3.77.

Question: What about the pKd [27] of the same binder?
Answer: The pKd was “below the threshold”.

Question: And the pKd [28]?
Answer: The pKd was “below the threshold”.

Question: What about the pKd [29] of the same binder?
Answer: Its pKd is 4.09.

B5: SLC17A1, Q14916 (peptide)
chain: WAKEKQHTRL
Question: Which results are given for B5?
Answer: pKd [1]: below the threshold; pKd [2]: 3.97; pKd [3]: below the threshold; pKd [4]: below the threshold; pKd [5]: 3.79; pKd [6]: below the threshold; pKd [7]: 4.7; pKd [8]: below the threshold; pKd [9]: 3.82; pKd [10]: 3.85; pKd [11]: below the threshold; pKd [12]: below the threshold; pKd [13]: below the threshold; pKd [14]: below the threshold; pKd [15]: below the threshold; pKd [16]: below the threshold; pKd [17]: below the threshold; pKd [18]: below the threshold; pKd [19]: 4.11; pKd [20]: below the threshold; pKd [21]: below the threshold; pKd [22]: 3.65; pKd [23]: below the threshold; pKd [24]: below the threshold; pKd [25]: below the threshold; pKd [26]: 4.28; pKd [27]: 3.47; pKd [28]: below the threshold; pKd [29]: below the threshold
